Earlier results, collected in article PMC4620043.
Where two headings read alike, the source gives them in different places.

Legend:
fibrin (Homo sapiens) [1] = molecular target: fibrin (Homo sapiens) (UniProt P02671)
fibrin (Homo sapiens) [2] = molecular target: fibrin (Homo sapiens) (UniProt P02671); remark: listed apart in the source

| Kd (fibrin (Homo sapiens) [1]) [µM] | Kd (fibrin (Homo sapiens) [2]) [nM] | Substance |
| --- | --- | --- |
| 6 | – | CREKA peptide |
| – | 8 | GPRPP peptide |
